How the values were obtained:
[1] = target: T1, recombinant human CD73 enzyme (human) (UniProt P21589); test: cell-based or functional assay
T1 sequence (looked up): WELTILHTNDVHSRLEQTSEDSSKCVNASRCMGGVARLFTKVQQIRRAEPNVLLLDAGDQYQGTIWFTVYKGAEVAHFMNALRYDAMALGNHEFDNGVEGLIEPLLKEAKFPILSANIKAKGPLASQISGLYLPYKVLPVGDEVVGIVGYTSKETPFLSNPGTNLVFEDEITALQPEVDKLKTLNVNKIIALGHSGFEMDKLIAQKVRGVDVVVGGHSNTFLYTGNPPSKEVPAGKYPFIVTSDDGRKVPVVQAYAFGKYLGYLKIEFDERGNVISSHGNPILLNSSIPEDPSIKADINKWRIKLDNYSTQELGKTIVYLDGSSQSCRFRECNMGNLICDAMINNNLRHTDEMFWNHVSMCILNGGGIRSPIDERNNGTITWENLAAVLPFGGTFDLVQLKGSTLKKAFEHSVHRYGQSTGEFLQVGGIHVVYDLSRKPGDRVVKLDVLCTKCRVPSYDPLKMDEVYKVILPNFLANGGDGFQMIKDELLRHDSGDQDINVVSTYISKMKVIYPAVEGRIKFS

[2] = target: T2, human CD73 expressed on cells (human) (UniProt P21589); test: cell-based or functional assay
T2 sequence (looked up): T1 sequence (looked up)

Substance	cell-free CD73 enzyme inhibition, maximal inhibition [1] [%]	Cell internalization EC50 (nM), Fab-ZAP saporin assay, MDA-MB-231 [2] [nM]
Oleclumab (antibody)	80	
hIgG1 isotype control (antibody)		> 100

— US20260000781A1, “FC CONJUGATES INCLUDING AN INHIBITOR OF CD73 AND USES THEREOF” (Cidara Therapeutics, Inc., priority 2022, published 2026)
